Data from patent publication US5914254.

Tests used:
[1] = target: insulin substrate
[2] = target: native dsbA (with leader)-biotinylation peptide (pDM25453) (E. coli) (UniProt P0AEG4)
[3] = target: 125I-radiolabeled IGF-I; assay: dot blot of serial dilutions of crude soluble fractions probed with 125I-IGF-I; tells of the amount of active protein, not of affinity

Substance	Oxidoreductase Activity of DsbA, Activity (U/min-mg), TEX fraction [1]	also measured
leaderless E. coli DsbA (pYZ9206) (from UniProt P0AEG4) (enzyme)	0.1 U/min-mg	–
E. coli biotin holoenzyme synthetase (from UniProt P06709)	–	efficiency of in vivo biotinylation of the Ni-NTA purified proteins of pDM25450 and pDM25453 [2]: < 10 fold
E. coli DsbA expressed with its leader sequence (pYZ9205) (from UniProt P0AEG4) (enzyme)	0.089 U/min-mg	–
DsbA-ubiquitin-IGFBP-3 fusion (pDM15427) (from UniProt P0AEG4)	–	fold increase in the recovery of bioactive IGFBP-3 (IGF-I binding activity of the crude extract, against the ubiquitin-IGFBP-3 fusion) [3]: 16 fold
